In publication doi:10.1101/2025.09.30.679617:

Biological target: PfCSP junctional peptide 21 (Plasmodium falciparum) (UniProt Q7K740)
Assay: BLI

CIS43 mAb gave a Kd of 21 nM.
